Target: T1, ^15N-labeled human eIF4E (human, UniProt P06730 1-217)
T1 construct: human eukaryotic translation initiation factor eIF4E, in pET-15b; Uniformly ^15N-labeled; also called cap-free eIF4E; source: overexpressed and purified as described in Volpon et al. (2016)
Test: NMR titration; ^1H–^15N HSQC of ~40 µM ^15N-labeled cap-free eIF4E, unlabeled LRP10A added to ratio 1:4; 20°C, 50 mM sodium phosphate pH 7.3, 100 mM NaCl, 1 mM DTT, 7% D2O
Conditions: both partners purified

T1 sequence (P06730 whole entry): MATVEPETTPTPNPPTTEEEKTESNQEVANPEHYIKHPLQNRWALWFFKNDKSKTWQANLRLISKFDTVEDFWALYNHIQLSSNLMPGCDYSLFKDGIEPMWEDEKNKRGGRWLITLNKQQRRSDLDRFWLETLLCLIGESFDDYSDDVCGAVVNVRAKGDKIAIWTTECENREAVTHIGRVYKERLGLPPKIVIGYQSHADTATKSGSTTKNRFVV

B1: synthetic peptide LRP10A (N-Ac-EGFPIRPHYFWPLLVGRRKEK-NH2) (peptide)
peptide: Ac-EGFPIRPHYFWPLLVGRRKEK-NH2
notes: human LRPPRC, residues 433-453 (helix 10A); source: synthetic peptide, bought: Biomatic Corporation
B1: binds.

Source: PMC5435865, “A biochemical framework for eIF4E-dependent mRNA export and nuclear recycling of the export machinery” (RNA, 2017)
